The test system of series [1] is S11 (S11a) (DNA, aptamer) GGGAGACAAGAATAAACGCTCAAGGCAACATACTGTAAAGCTCAGGACTTCGACAGGAGGCTCACAACAGGC
The series can be described thus: fluorescence titration of dye into aptamer, sigmoidal fit. To be noted: binding solution (composition not given); 50 nM aptamer; ex 434 nm, em 610 nm; apparent.

Series [2] concerns S75 (S75a) (DNA, aptamer) GGGAGACAAGAATAAACGCTCAACTGGTATCTATATGAAGGTTGTAGCTTCGACAGGAGGCTCACAACAGGC
Described as above. The settings on record: binding solution (composition not given); 50 nM aptamer; ex 434 nm, em 610 nm; apparent.

Series [3] relates to S51 (S51a) (DNA, aptamer) GGGAGACAAGAATAAACGCTCAAAGATAAAAAGGCTGTCTGAAAATTTTCGACAGGAGGCTCACAACAGGC
The description is as above. The settings on record: binding solution (composition not given); 50 nM aptamer; ex 434 nm, em 610 nm; apparent.

Series [4] concerns lipase. The series can be described thus: Ru(phen)2dppz fluorescence displacement. The settings on record: no displacement up to 250 µM; aptamer given as variable region, S11b inferred; Ru displacement: 50 nM aptamer in binding solution (composition not given), excitation 434 nm, emission 610 nm; thermal assay: binding solution, 1 h ambient ….
Series [5] concerns the target MUC1 variable tandem repeat (VTR) peptide (UniProt P15941). The series can be described thus: Ru(phen)2dppz fluorescence displacement. The settings on record: Ru dye; Ru displacement: 50 nM aptamer in binding solution (composition not given), excitation 434 nm, emission 610 nm; thermal assay: binding solution, 1 h ambient ….
Series [6] addresses T1, MUC1/Y 10mer peptide (UniProt P15941-7).
T1 chain: TEKNAFNSSL
The series is described as follows: thermal denaturation (SYBR Green I); 1:1000 aptamer:peptide; Tm 21 to 7 and 20 °C; Ru displacement: 50 nM aptamer in binding solution (composition not given), excitation 434 nm, emission 610 nm; thermal assay: binding solution, 1 h ambient then SYBR Green I, 3-100 °C; cells: PBS, 4 °C, 1 h.

The target in series [7] is T2, MUC1/Y 20mer peptide (UniProt P15941-7).
T2 chain: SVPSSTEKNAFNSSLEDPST
The series can be described thus: thermal denaturation (SYBR Green I); 1:1000 aptamer:peptide; Tm 21 to 16 °C; Ru displacement: 50 nM aptamer in binding solution (composition not given), excitation 434 nm, emission 610 nm; thermal assay: binding solution, 1 h ambient then SYBR Green I, 3-100 °C; cells: PBS, 4 °C, 1 h.

Series [8] addresses T2, MUC1/Y 20mer peptide. The series is described as follows: Ru(phen)2dppz fluorescence displacement; 1.5 µM Ru dye; Kd only in Figure 2C; Ru displacement: 50 nM aptamer in binding solution (composition not given), excitation 434 nm, emission 610 nm; thermal assay: binding solution, 1 h ambient then SYBR Green I, 3-100 °C; cells: PBS, 4 °C, 1 h. The settings on record: predicted hairpin (m-fold).

In series [9] the target is T1, MUC1/Y 10mer peptide. The series can be described thus: thermal denaturation (SYBR Green I); 1:1000 aptamer:peptide; Tm 35 to 43 °C; Ru displacement: 50 nM aptamer in binding solution (composition not given), excitation 434 nm, emission 610 nm; thermal assay: binding solution, 1 h ambient then SYBR Green I, 3-100 °C; cells: PBS, 4 °C, 1 h. The settings on record: predicted hairpin (m-fold).

For series [10], the target named is T2, MUC1/Y 20mer peptide. The series can be described thus: thermal denaturation (SYBR Green I); 1:1000 aptamer:peptide; Tm 35 to 30 °C; Ru displacement: 50 nM aptamer in binding solution (composition not given), excitation 434 nm, emission 610 nm; thermal assay: binding solution, 1 h ambient then SYBR Green I, 3-100 °C; cells: PBS, 4 °C, 1 h. To be noted: predicted hairpin (m-fold).

The target in series [11] is T2, MUC1/Y 20mer peptide. The series can be described thus: thermal denaturation (SYBR Green I); 1:1000 aptamer:peptide; Tm 20 and 45 to 16 °C; Ru displacement: 50 nM aptamer in binding solution (composition not given), excitation 434 nm, emission 610 nm; thermal assay: binding solution, 1 h ambient then SYBR Green I, 3-100 °C; cells: PBS, 4 °C, 1 h. The settings on record: hairpin (m-fold).

For series [12], the target named is T1, MUC1/Y 10mer peptide. The series can be described thus: thermal denaturation (SYBR Green I); 1:1000 aptamer:peptide; Tm 20 and 45 to 26 °C; Ru displacement: 50 nM aptamer in binding solution (composition not given), excitation 434 nm, emission 610 nm; thermal assay: binding solution, 1 h ambient then SYBR Green I, 3-100 °C; cells: PBS, 4 °C, 1 h. To be noted: hairpin (m-fold).

Series [13] has as its target T2, MUC1/Y 20mer peptide. The series can be described thus: Ru(phen)2dppz fluorescence displacement; 2 µM Ru dye; Kd only in Figure 2C; Ru displacement: 50 nM aptamer in binding solution (composition not given), excitation 434 nm, emission 610 nm; thermal assay: binding solution, 1 h ambient then SYBR Green I, 3-100 °C; cells: PBS, 4 °C, 1 h. To be noted: predicted hairpin (m-fold).

Sequence of MUC1 variable tandem repeat (VTR) peptide (P15941 whole entry): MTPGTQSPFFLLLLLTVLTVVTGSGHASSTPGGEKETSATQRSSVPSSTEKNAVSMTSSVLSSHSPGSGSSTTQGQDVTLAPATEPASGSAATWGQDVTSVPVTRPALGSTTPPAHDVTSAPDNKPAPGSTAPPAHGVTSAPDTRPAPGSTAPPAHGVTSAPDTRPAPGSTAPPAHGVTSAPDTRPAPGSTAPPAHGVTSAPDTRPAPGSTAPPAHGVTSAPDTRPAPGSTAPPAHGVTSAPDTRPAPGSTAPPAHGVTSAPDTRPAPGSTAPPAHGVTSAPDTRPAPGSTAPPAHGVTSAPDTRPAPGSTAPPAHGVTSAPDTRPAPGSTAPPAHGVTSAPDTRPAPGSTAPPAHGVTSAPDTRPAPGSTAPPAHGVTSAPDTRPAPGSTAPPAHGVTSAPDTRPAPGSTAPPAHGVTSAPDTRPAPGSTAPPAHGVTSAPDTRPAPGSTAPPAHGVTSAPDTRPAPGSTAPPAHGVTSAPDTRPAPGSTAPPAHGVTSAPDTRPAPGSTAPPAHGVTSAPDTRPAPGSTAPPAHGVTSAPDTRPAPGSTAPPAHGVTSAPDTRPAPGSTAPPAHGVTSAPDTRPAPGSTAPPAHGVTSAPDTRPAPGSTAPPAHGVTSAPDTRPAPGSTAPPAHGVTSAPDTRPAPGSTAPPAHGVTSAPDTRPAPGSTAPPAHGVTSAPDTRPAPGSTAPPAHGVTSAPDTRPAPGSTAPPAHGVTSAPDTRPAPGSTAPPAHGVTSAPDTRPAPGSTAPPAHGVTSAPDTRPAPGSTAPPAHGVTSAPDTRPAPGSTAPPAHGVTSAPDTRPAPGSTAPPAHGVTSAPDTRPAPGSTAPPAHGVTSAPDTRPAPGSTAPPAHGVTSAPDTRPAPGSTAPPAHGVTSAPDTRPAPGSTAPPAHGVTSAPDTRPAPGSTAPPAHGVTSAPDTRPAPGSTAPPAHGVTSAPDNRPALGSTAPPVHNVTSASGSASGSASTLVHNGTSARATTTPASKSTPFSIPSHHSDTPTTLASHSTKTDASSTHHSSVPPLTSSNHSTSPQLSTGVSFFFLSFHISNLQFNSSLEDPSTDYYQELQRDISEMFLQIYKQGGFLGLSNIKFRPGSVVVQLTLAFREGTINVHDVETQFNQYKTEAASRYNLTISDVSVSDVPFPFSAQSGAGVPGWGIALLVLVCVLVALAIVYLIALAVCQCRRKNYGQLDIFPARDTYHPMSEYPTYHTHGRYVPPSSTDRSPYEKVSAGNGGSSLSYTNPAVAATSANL

As to `[Ru+2].c1ccc2nc3c4cccnc4c4ncccc4c3nc2c1.c1cnc2c(c1)ccc1cccnc12.c1cnc2c(c1)ccc1cccnc12`, the Kd was determined as 350 nM in series [1], 240 nM in series [2] and 440 nM in series [3].

The molecule “GGCAACATACTGTAAAGCTCAGGAC [S11b (S11 variable region)]” showed a Kd in series [4] greater than 250000 nM. Further, the binding signal (fold more peptide than MUC1/Y peptide) in [5] was greater than 100.

In the case of GGCAACATACTGTAAAGCTCAGGAC (ssDNA) [S11b (S11 variable region)], the binding result in [6] and in series [7] was “binds” each time.

B1: S51a (S51 full length) (ssDNA)
DNA: GGGAGACAAGAATAAACGCTCAAAGATAAAAAGGCTGTCTGAAAATTTTCGACAGGAGGCTCACAACAGGC
Consider B1, for which, in series [8], the binding result is “binds”.

B2: S11a (S11 full length) (ssDNA)
DNA: GGGAGACAAGAATAAACGCTCAAGGCAACATACTGTAAAGCTCAGGACTTCGACAGGAGGCTCACAACAGGC
Take B2: the binding result in [9] and in series [10] was “binds” throughout.

Consider ACTGTAAAGCTCAGGACTTCGACAGG (ssDNA) [S11c (S11 hairpin region)], for which the binding result in [11] and in series [12] was “binds” throughout.

B3: S75a (S75 full length) (ssDNA)
DNA: GGGAGACAAGAATAAACGCTCAACTGGTATCTATATGAAGGTTGTAGCTTCGACAGGAGGCTCACAACAGGC
Consider B3, for which the binding result in series [13] is recorded as “binds”.

The record behind these values is article PMC8400696.
